Molecular target: TRIM16 GST-fusion protein (substrate of the ULK1 kinase assay)

B1: Flag-ULK1 wt (protein)
chain: MEPGRGGTETVGKFEFSRKDLIGHGAFAVVFKGRHREKHDLEVAVKCINKKNLAKSQTLLGKEIKILKELKHENIVALYDFQEMANSVYLVMEYCNGGDLADYLHAMRTLSEDTIRLFLQQIAGAMRLLHSKGIIHRDLKPQNILLSNPAGRRANPNSIRVKIADFGFARYLQSNMMAATLCGSPMYMAPEVIMSQHYDGKADLWSIGTIVYQCLTGKAPFQASSPQDLRLFYEKNKTLVPTIPRETSAPLRQLLLALLQRNHKDRMDFDEFFHHPFLDASPSVRKSPPVPVPSYPSSGSGSSSSSSSTSHLASPPSLGEMQQLQKTLASPADTAGFLHSSRDSGGSKDSSCDTDDFVMVPAQFPGDLVAEAPSAKPPPDSLMCSGSSLVASAGLESHGRTPSPSPPCSSSPSPSGRAGPFSSSRCGASVPIPVPTQVQNYQRIERNLQSPTQFQTPRSSAIRRSGSTSPLGFARASPSPPAHAEHGGVLARKMSLGGGRPYTPSPQVGTIPERPGWSGTPSPQGAEMRGGRSPRPGSSAPEHSPRTSGLGCRLHSAPNLSDLHVVRPKLPKPPTDPLGAVFSPPQASPPQPSHGLQSCRNLRGSPKLPDFLQRNPLPPILGSPTKAVPSFDFPKTPSSQNLLALLARQGVVMTPPRNRTLPDLSEVGPFHGQPLGPGLRPGEDPKGPFGRSFSTSRLTDLLLKAAFGTQAPDPGSTESLQEKPMEIAPSAGFGGSLHPGARAGGTSSPSPVVFTVGSPPSGSTPPQGPRTRMFSAGPTGSASSSARHLVPGPCSEAPAPELPAPGHGCSFADPITANLEGAVTFEAPDLPEETLMEQEHTEILRGLRFTLLFVQHVLEIAALKGSASEAAGGPEYQLQESVVADQISLLSREWGFAEQLVLYLKVAELLSSGLQSAIDQIRAGKLCLSSTVKQVVRRLNELYKASVVSCQGLSLRLQRFFLDKQRLLDRIHSITAERLIFSHAVQMVQSAALDEMFQHREGCVPRYHKALLLLEGLQHMLSDQADIENVTKCKLCIERRLSALLTGICA
  in vitro phosphorylation (γ32P ATP, autoradiography), wt vs kinase-dead K46I ULK1: comparing active vs. kinase dead ULK1 we established that TRIM16 was a substrate for ULK1 phosphorylation

From US20240261378
